Our source for the ELISA % of native Lu gpFc, Biacore Δ RUs and OD450 (background binding) values is patent US20100211325A1.

The target in assay [1] is Laminin 511/521 (LM511/521) (UniProt O15230). As to the kind of experiment: ELISA, 0.05 nM Lu gpFc captured by anti-human Fc, 5 nM LM511/521, anti-laminin detection. A general note: ELISA stands for enzyme-linked immunosorbent assay.
The target is the same in assay [2]. As to the kind of experiment: SPR (Biacore X), Lu gpFc captured on protein A chip (40 RU), 100 µl injection of 10 nM LM511/521, total change in RU.
The target is the same in assay [3]. As to the kind of experiment: ELISA in buffers of pH 4.0 to 11.0 and 1M NaCl, negative control Fc fusion protein captured, LM511/521 added.

Muc18 Fc fusion protein (negative control), sequence (P43121 24-559): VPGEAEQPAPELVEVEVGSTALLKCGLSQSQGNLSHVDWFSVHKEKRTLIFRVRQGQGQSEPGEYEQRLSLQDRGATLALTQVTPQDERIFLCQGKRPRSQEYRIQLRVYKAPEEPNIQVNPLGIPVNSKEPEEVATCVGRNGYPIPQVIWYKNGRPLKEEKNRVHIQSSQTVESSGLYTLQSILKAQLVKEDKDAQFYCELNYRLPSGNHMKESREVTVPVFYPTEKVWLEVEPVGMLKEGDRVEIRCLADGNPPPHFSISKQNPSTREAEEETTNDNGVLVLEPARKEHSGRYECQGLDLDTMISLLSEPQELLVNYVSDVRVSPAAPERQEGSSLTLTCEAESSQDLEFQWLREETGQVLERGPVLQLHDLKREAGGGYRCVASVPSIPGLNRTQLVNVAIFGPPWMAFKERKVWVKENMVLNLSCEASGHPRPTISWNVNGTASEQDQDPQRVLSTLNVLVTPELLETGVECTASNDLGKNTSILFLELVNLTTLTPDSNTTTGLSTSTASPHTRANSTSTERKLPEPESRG

For the substance “Lu gpFc E309A (from UniProt P50895 32-547) (Fc fusion)”, the ELISA % of native Lu gpFc in assay [1] worked out at 40.4%. Further, in assay [2], the Biacore Δ RUs was determined as 44.9 RU. Taken in the same sequence, the figures for “Lu gpFc D316A (from UniProt P50895 32-547) (Fc fusion)” were 75% and 79.8 RU.

Substance “Lu gpFc E234A (from UniProt P50895 32-547) (Fc fusion)” came in with an ELISA % of native Lu gpFc in assay [1] of 90.7%. Besides, in assay [2], the Biacore Δ RUs came to 85 RU.

For the substance “Lu gpFc E281A (from UniProt P50895 32-547) (Fc fusion)”, the ELISA % of native Lu gpFc in assay [1] came out at 97.3%. In assay [2], the Biacore Δ RUs was 100 RU. On the same counts, the results for “Lu gpFc E280A (from UniProt P50895 32-547) (Fc fusion)” are 73% and 99.1 RU.

Substance “Lu gpFc D312A (from UniProt P50895 32-547) (Fc fusion)” yielded an ELISA % of native Lu gpFc in assay [1] of 20.7%. This substance yielded a Biacore Δ RUs in assay [2] of 4.4 RU. In turn, “Lu gpFc D315A (from UniProt P50895 32-547) (Fc fusion)” had an ELISA % of native Lu gpFc in assay [1] of 93.2%. In assay [2], the Biacore Δ RUs turned out to be 116 RU. On to “Lu gpFc E269A (from UniProt P50895 32-547) (Fc fusion)”, for which the ELISA % of native Lu gpFc in assay [1] came to 63.2%. Moreover, the Biacore Δ RUs in assay [2] came out at 73.8 RU. Taken in the same sequence, the figures for “Lu gpFc D198A/D199A (from UniProt P50895 32-547) (Fc fusion)” were 49% and 59.7 RU. On the same counts, the results for “Lu gpFc D310A (from UniProt P50895 32-547) (Fc fusion)” are 26.4% and 38.5 RU.

For the substance “Muc18 Fc fusion protein (negative control) (from UniProt P43121 24-559)”, in assay [3], the OD450 (background binding) lay within 0.18 to 0.64 OD450.
